These results are taken from paper doi:10.1101/2022.08.08.503141 (bioRxiv, 2022).

The target of the test is winged-helix domain 32C of human RPA (residues 172-270 of RPA2) (human, UniProt P15927 172-270). As to the kind of experiment: NMR titration.
Chain of winged-helix domain 32C of human RPA (residues 172-270 of RPA2) (P15927 172-270): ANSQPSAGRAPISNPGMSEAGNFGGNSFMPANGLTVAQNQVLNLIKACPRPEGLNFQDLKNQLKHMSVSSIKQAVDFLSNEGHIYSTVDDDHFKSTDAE

B1: harmonin homology domain 2 (HHD2) of human RTEL1, residues 1056-1140 (domain or fragment)
chain: GQHAVSAYLADARRALGSAGCSQLLAALTAYKQDDDLDKVLAVLAALTTAKPEDFPLLHRFSMFVRPHHKQRFSQTCTDLTGRPY
Consider B1, for which the binding result is recorded as “binds”.
